Data reported in the supplement of paper PMC9732359.
± gives the uncertainty stated by the source.

Assay: protein stability index of a GFP-peptide fusion (yeast GPS) (PSI 1-4); higher = more stable; sorted into four equal gates, so the index is relative within each strain
Summary of the method: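 For each peptide, the protein stability index sums the read frequency in every gate after multiplying it by the gate number. Read frequencies came from plasmids that were PCR-amplified from each gate and Illumina-sequenced, with reads assigned to strains by barcodes. The gates were four equal bins of GFP/Cherry fluorescence ratio applied to mid-log yeast in leucine-free medium carrying a pooled library of tiled 17-residue yeast protein peptides fused downstream of GFP on a Cherry-expressing plasmid.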

Sequence	protein stability index (doa10∆)	protein stability index (pdr5∆)	protein stability index (san1∆)	protein stability index (ubr1∆)
DFNMKLAINAKTITSGL [RPB2]	2.99 ± 0.087	3.06 ± 0.086	2.76 ± 0.061	2.99 ± 0.05
DFNQAKHEEIDTKNLYV [RPS10A]	3.38 ± 0.16	2.81 ± 0.12	3.29 ± 0.078	3.07 ± 0.074
DFSIRKTCAKSVIQLCG [ECM29]	1.84 ± 0.12	1.91 ± 0.13	2.05 ± 0.22	–
DGENDKKEATKPAFSFG [YLR335W/NUP2]	2.59 ± 0.048	2.21 ± 0.043	2.79 ± 0.041	2.9 ± 0.033
DGIGGLTEQIRELREVI [RPT4]	–	3.65 ± 0.28	–	–
DGILRLYDALEPSDLRS [YGL100W/SEH1]	3.02 ± 0.061	3.02 ± 0.051	2.77 ± 0.041	2.99 ± 0.042
DHRKRKKSKIQLLDIAE [LIN1]	–	2.8 ± 0.23	3.19 ± 0.17	3.32 ± 0.18
DHSMILPSGVLSRGDDE [SMC3]	3.08 ± 0.094	2.51 ± 0.082	2.19 ± 0.12	2.39 ± 0.04
DICLKLNLDSEQTVEYM [RPN3]	3.37 ± 0.23	3.28 ± 0.2	2.97 ± 0.24	3.07 ± 0.092
DIEDALVLNKSSIDRGF [RET1]	2.37 ± 0.095	2.83 ± 0.14	2.24 ± 0.19	2.97 ± 0.22
DIGVLEEYARRLAEFKR [SMC4]	3.13 ± 0.12	3.38 ± 0.11	2.74 ± 0.096	3.35 ± 0.077
DIICEDSTLILEQLAQH [RPB2]	2.24 ± 0.047	2.56 ± 0.057	2.57 ± 0.084	2.35 ± 0.051
DIKANGSIQKGMPHKFY [RPL21A]	3.01 ± 0.21	3.07 ± 0.15	3.07 ± 0.28	3.64 ± 0.14
DINPPLVFILAVVGNNM [RRP42]	1.84 ± 0.083	1.78 ± 0.058	1.96 ± 0.082	1.52 ± 0.046
DINTIKLQLSFVLQMVG [SRP72]	1.26 ± 0.092	1.88 ± 0.066	1.32 ± 0.11	1.57 ± 0.062
DITFFGEALPNKFHKSI [SIR2]	3 ± 0.11	2.98 ± 0.1	2.61 ± 0.082	2.64 ± 0.054
DIYKSHLDNSKSVFSSA [RPN1]	2.69 ± 0.056	2.77 ± 0.041	2.67 ± 0.051	2.66 ± 0.063
DKDRDTRRKRRQGRSNR [SNF5]	3.6 ± 0.23	3.48 ± 0.16	3.31 ± 0.096	3.55 ± 0.14
DKEWVFAALSDSYGQGS [SSN2]	3.18 ± 0.11	3.46 ± 0.1	3.1 ± 0.13	3.34 ± 0.09
DKFFTLSAENIEERLVA [SCL1]	3.01 ± 0.074	3.01 ± 0.084	3.06 ± 0.082	3.02 ± 0.069
DKFKLNENDLKTYNCLH [SMC1]	2.7 ± 0.14	2.5 ± 0.12	–	2.85 ± 0.094
DKIAVAVAGLTADAEIL [PRE9]	1.5 ± 0.098	1.65 ± 0.077	1.25 ± 0.21	2.1 ± 0.075
DKKLNLNLPLQFSLPNG [SNF12]	3.04 ± 0.085	3.02 ± 0.079	2.62 ± 0.074	2.7 ± 0.075
DKKNSSDPNNQSLNEMV [YJL039C/NUP192]	3.07 ± 0.1	3.24 ± 0.11	3.16 ± 0.087	3.35 ± 0.071
DKKVLVKVQPEGKYIVD [RPT6]	3.23 ± 0.081	3.28 ± 0.088	3.23 ± 0.036	2.96 ± 0.062
DKLDDDGLIAPGVRVSG [RPB2]	1.65 ± 0.19	2.23 ± 0.1	2.48 ± 0.27	1.71 ± 0.11

Sequence	protein stability index (doa10∆)	protein stability index (pdr5∆)	protein stability index (san1∆)	protein stability index (ubr1∆)
DKLELYVLRNVLRIPEE [MTW1]	3 ± 0.13	2.45 ± 0.084	2.94 ± 0.076	3.41 ± 0.12
DKLPQFVDENTFQRVCQ [RPN1]	3.04 ± 0.082	3.28 ± 0.12	3.15 ± 0.062	3.3 ± 0.078
DKLWTLIPEDKRDQYLK [RPL28]	3.32 ± 0.19	2.88 ± 0.22	3.13 ± 0.07	3.18 ± 0.24
DKLYIHFVQEEPLAFYL [RGR1]	2.21 ± 0.041	2.35 ± 0.045	2.4 ± 0.045	2.32 ± 0.033
DKSIDTSSLQLYKFQNF [YML103C/NUP188]	2.67 ± 0.064	3.05 ± 0.086	2.7 ± 0.055	2.99 ± 0.055
DLAFGGEANKHHWEDLQ [RPN5]	3.09 ± 0.12	3.31 ± 0.16	3.07 ± 0.11	3.21 ± 0.091
DLALPPPPPPPPGYEIE [PRP8]	3.08 ± 0.088	2.98 ± 0.11	2.54 ± 0.14	2.95 ± 0.073
DLDLNEQVRKMYQEWED [NSL1]	2.97 ± 0.13	3.39 ± 0.11	3.26 ± 0.071	2.92 ± 0.11
DLDTVLKKDIESLRGIL [SRP72]	1.63 ± 0.088	1.38 ± 0.096	1.37 ± 0.25	1.61 ± 0.089
DLEKTERIVVSYEYYNI [SMC2]	2.76 ± 0.073	2.6 ± 0.073	2.71 ± 0.074	2.67 ± 0.045
DLESMGLTQLYKKSTEN [MED7]	2.9 ± 0.071	3.13 ± 0.067	2.81 ± 0.067	2.9 ± 0.047
DLIAEQVVTDYNILGNL [SSN2]	2.52 ± 0.074	3.11 ± 0.077	2.28 ± 0.11	2.21 ± 0.063
DLQKLLKGIQEFGADWY [SWI3]	3.1 ± 0.062	3.07 ± 0.056	3.09 ± 0.043	3.22 ± 0.053
DLQNLNLNTDKLKNNAS [YJL039C/NUP192]	2.54 ± 0.11	2.65 ± 0.061	2.94 ± 0.086	2.5 ± 0.057
DLRLGSQSLGVSNKFEK [PUP3]	3.52 ± 0.14	3.52 ± 0.16	2.94 ± 0.13	3.62 ± 0.13
DLSLNITLHPSFFGPRM [RPB7]	2.25 ± 0.22	1.83 ± 0.1	1.7 ± 0.14	1.55 ± 0.074
DLTLDDISLKADLERFF [YJL039C/NUP192]	3.29 ± 0.053	3.35 ± 0.076	3.41 ± 0.036	3.23 ± 0.039
DLTNNPQDDDSQSKMMS [MTR3]	3.17 ± 0.084	3.39 ± 0.073	3.09 ± 0.074	3.31 ± 0.055
DMANEIILSIDEHHESF [RRP6]	3.01 ± 0.068	2.98 ± 0.093	2.95 ± 0.062	2.9 ± 0.049
DMDAQGRSDSNTEEKAE [YGL100W/SEH1]	1.57 ± 0.038	1.67 ± 0.051	1.5 ± 0.14	1.4 ± 0.041
DMGMQQELCYPDENHDN [BRN1]	3.22 ± 0.073	3.28 ± 0.06	2.99 ± 0.059	3.33 ± 0.055
DMNSNLQVLKRERDGIK [SMC1]	3.01 ± 0.093	2.92 ± 0.065	3.03 ± 0.047	2.78 ± 0.078
DNCCDFKVRTNLNDKFG [MED1]	2.74 ± 0.19	3.22 ± 0.2	2.79 ± 0.15	3.08 ± 0.092
DNNITEMLEENFPEASK [YCG1]	2.48 ± 0.097	2.22 ± 0.11	2.59 ± 0.09	2.74 ± 0.052
DNNNTTNNDSNNKNNSI [MED2]	2.83 ± 0.049	2.86 ± 0.045	2.96 ± 0.038	2.45 ± 0.034
DNRTKSTTIKNIDILNR [SMC4]	1.85 ± 0.062	2.07 ± 0.062	1.77 ± 0.15	1.67 ± 0.08

Sequence	protein stability index (doa10∆)	protein stability index (pdr5∆)	protein stability index (san1∆)	protein stability index (ubr1∆)
DNVSGLTRNAPLDSKDE [SNF2]	2.95 ± 0.063	3.25 ± 0.051	3 ± 0.04	3.13 ± 0.043
DNWNAPLIMATCGSKGS [RPO31]	2.57 ± 0.2	2.4 ± 0.11	–	2.43 ± 0.075
DNWRREFLKWTPNVNVL [ISW2]	1.46 ± 0.098	2.42 ± 0.12	–	2.31 ± 0.07
DPDNTSFSDENSDDFFM [ESC2]	2.31 ± 0.13	2.39 ± 0.11	2.54 ± 0.09	1.5 ± 0.088
DPDTKKVKESPANDQAS [YIL149C/MLP2]	3.04 ± 0.084	3.21 ± 0.078	3.06 ± 0.049	3.12 ± 0.093
DPHSASLINSHLKILAS [RPC82]	2.15 ± 0.22	1.38 ± 0.12	1.38 ± 0.19	1.23 ± 0.059
DPKLEKCLNYRNVNWIE [ITC1]	2.96 ± 0.069	2.88 ± 0.09	2.96 ± 0.056	2.95 ± 0.046
DPLYDITKVPALEFLNT [REC8]	2.32 ± 0.069	2.72 ± 0.093	2.61 ± 0.11	2.62 ± 0.083
DPPFRIEEQGWGGFPLD [TAF14]	3.32 ± 0.055	3.33 ± 0.052	3.44 ± 0.048	3.34 ± 0.047
DPRIAPLRGALATYGLT [FAS2]	2.37 ± 0.1	2.51 ± 0.16	2.38 ± 0.13	2.04 ± 0.056
DPSISNNIRQAICRYAN [RRP4]	2.09 ± 0.077	2.06 ± 0.049	1.59 ± 0.11	2.43 ± 0.056
DPVEGNLEFDSTNHPDY [SRP14]	2.9 ± 0.066	2.79 ± 0.068	3.09 ± 0.049	2.95 ± 0.051
DPYELKGEVVLVNIRTQ [ITC1]	1.57 ± 0.098	2.66 ± 0.14	2.45 ± 0.11	2.3 ± 0.099
DQCVGQVGLNFELSFTG [YMR129W/POM152]	2.94 ± 0.061	3.01 ± 0.077	3.06 ± 0.046	2.97 ± 0.043
DQDELVQPPLDKFPYKK [SWP82]	3.11 ± 0.088	3.26 ± 0.093	3.13 ± 0.059	3.08 ± 0.066
DQKFGVPVRSFKGHSHI [ASC1]	3.11 ± 0.092	3.19 ± 0.064	2.99 ± 0.07	3.25 ± 0.058
DQNNATMGEETAKKDMS [SNF12]	3.44 ± 0.082	3.34 ± 0.11	3.21 ± 0.12	3.32 ± 0.09
DRELSVRNACKRLIAHD [YCG1]	2.59 ± 0.097	2.77 ± 0.27	2.49 ± 0.26	2.67 ± 0.18
DRIYMLFHFEEDEGEEL [PRP8]	1.64 ± 0.065	1.49 ± 0.064	1.5 ± 0.17	1.93 ± 0.057
DRSLADDYDYVMYGTAY [RPB8]	2.56 ± 0.059	2.98 ± 0.064	3.02 ± 0.063	2.73 ± 0.074
DRVEDICERIFEQGQAL [RRI2]	2.72 ± 0.12	3.02 ± 0.17	3.18 ± 0.22	–
DRVFNVPTIGVVNSNFA [YJR042W/NUP85]	2.57 ± 0.08	2.7 ± 0.085	2.48 ± 0.086	2.5 ± 0.036
DSELNRALFETKLNLHC [RRI1]	2.75 ± 0.067	2.79 ± 0.053	3 ± 0.038	2.92 ± 0.055
DSESESGDKEATAPLIQ [RPN8]	3.44 ± 0.19	3.44 ± 0.12	3.28 ± 0.093	3.49 ± 0.28
